PMC4930721 (Cancer discovery, 2016)
Where no end group is shown, it is not given here. Me3 = trimethyl-lysine

Biological target: LEDGF PWWP (residues 1-120), 15N-labeled (UniProt O75475 1-120, uniformly 15N-labeled)
Assay: NMR titration

Chain of LEDGF PWWP (residues 1-120), 15N-labeled (O75475 1-120): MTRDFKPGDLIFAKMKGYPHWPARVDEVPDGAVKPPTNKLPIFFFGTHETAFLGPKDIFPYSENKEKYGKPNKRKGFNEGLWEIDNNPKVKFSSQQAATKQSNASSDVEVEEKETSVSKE

Binder ATGGVK(Me3)KPHR [histone H3K36me3 peptide] has a Kd of 4.4 mM.
